Drawing on the Immune Epitope Database (IEDB), this text covers IC50 and Kd for seven sequences.

Bounds are passed on as bounds.

For one assay, the target named is HLA-A*03:01. As to the kind of experiment: IEDB peptide-MHC binding, purified MHC/competitive/radioactivity; ≥ and ≤ were set here for values at or beyond the usual limits of such assays.
A further assay concerns the target HLA-A*31:01. Described as above.
Assay [1] concerns the target HLA-A*66:01. The description is as above.
For assay [2], the target named is HLA-A*33:01. The description is as above.
Another assay has as its target HLA-A*68:01. The assay is described as above.
Assay [3] addresses HLA-A*11:01. The assay is described as above.
The target in assay [4] is HLA-A*30:01. The description is as above. To be noted: source organism: Mus musculus.
A further assay concerns the target HLA-B*42:01. The description is as above.
Another assay has as its target HLA-B*53:01. Described as above.
For a further assay, the target named is HLA-B*07:02. Described as above.
In assay [5] the target is HLA-A*30:01. As to the kind of experiment: IEDB peptide-MHC binding, purified MHC/competitive/radioactivity; filed as Kd, often an IC50 or EC50 that approximates it; ≥ and ≤ were set here for values at or beyond the usual limits of such assays. As to conditions: source organism: Homo sapiens.
Assay [6] deals with HLA-A*11:01. The assay is described as above. To be noted: source organism: Mus musculus.
Assay [7] deals with HLA-A*33:01. The description is as above. As to conditions: source organism: Homo sapiens.
The target in another assay is HLA-B*35:03. The assay is described as follows: IEDB peptide-MHC binding, purified MHC/competitive/radioactivity; ≥ and ≤ were set here for values at or beyond the usual limits of such assays. As to conditions: source organism: Mus musculus.
In a further assay the target is HLA-B*35:01. The assay is described as follows: IEDB peptide-MHC binding, purified MHC/competitive/radioactivity; filed as Kd, often an IC50 or EC50 that approximates it; ≥ and ≤ were set here for values at or beyond the usual limits of such assays. To be noted: source organism: Mus musculus.
The target of another assay is HLA-B*51:01. The description is as above. As to conditions: source organism: Mus musculus.
The target in a further assay is HLA-B*54:01. The assay is described as above. As to conditions: source organism: Mus musculus.
In assay [8] the target is HLA-A*66:01. The assay is described as above. As to conditions: source organism: Mus musculus.

Broadly, the IC50 is the concentration that gives 50% inhibition. AINSEMFLR: the IC50 with HLA-A*03:01 (source organism: Mus musculus) stood at 0.428 µM; with HLA-A*31:01 (source organism: Mus musculus), 0.067 µM; in the assay with HLA-A*66:01 [1] (source organism: Mus musculus), 4.55 µM; with HLA-A*33:01 [2] (source organism: Mus musculus), 1.08 µM; in the assay with HLA-A*68:01 (source organism: Mus musculus) it was 0.109 µM; with HLA-A*11:01 [3] (source organism: Mus musculus), 0.209 µM. Further, the IC50 with HLA-A*30:01 [4] amounted to 49.8 µM.
Take GPGAGSLQPLAL: the values for the concentration for half-maximal inhibition (IC50) in the assay with HLA-B*42:01 (source organism: Homo sapiens), in the assay with HLA-B*53:01 (source organism: Homo sapiens) and with HLA-B*07:02 (source organism: Homo sapiens) were 6.07 µM, 15.5 µM and 0.462 µM, respectively.
Usually Kd stands for the concentration at which binding is half-saturated. Consider LALEGSLQKR, for which the half-maximal inhibitory concentration (IC50) with HLA-A*03:01 (source organism: Homo sapiens) amounted to 17.5 µM; in the assay with HLA-A*31:01 (source organism: Homo sapiens) it was 38.4 µM; with HLA-A*66:01 [1] (source organism: Homo sapiens), 0.515 µM; in the assay with HLA-A*33:01 [2] (source organism: Homo sapiens) it was 3.27 µM; with HLA-A*68:01 (source organism: Homo sapiens), 0.066 µM; in the assay with HLA-A*11:01 [3] (source organism: Homo sapiens), 34.5 µM. Moreover, the dissociation constant Kd with HLA-A*30:01 [5] is no less than 50 µM.
LALEVARQKR: the IC50 was 43.6 µM with HLA-A*03:01 (source organism: Mus musculus); 10.8 µM in the assay with HLA-A*31:01 (source organism: Mus musculus); 13 µM with HLA-A*66:01 [1] (source organism: Mus musculus); 9.14 µM with HLA-A*33:01 [2] (source organism: Mus musculus); 12.6 µM with HLA-A*68:01 (source organism: Mus musculus); 43 µM with HLA-A*30:01 [4]. The Kd with HLA-A*11:01 [6] is no less than 50 µM.
As to PLALEGSLQ, the concentration for half-maximal inhibition (IC50) with HLA-A*03:01 (source organism: Homo sapiens) amounted to 20.9 µM; in the assay with HLA-A*31:01 (source organism: Homo sapiens) it was 39.4 µM; with HLA-A*66:01 [1] (source organism: Homo sapiens), 48.5 µM; in the assay with HLA-A*68:01 (source organism: Homo sapiens), 41.5 µM; in the assay with HLA-A*11:01 [3] (source organism: Homo sapiens) it was 37.1 µM. For the same sequence, the equilibrium dissociation constant (Kd) with HLA-A*33:01 [7] and with HLA-A*30:01 [5] was no less than 50 µM in each case.
With SPGDLQTLAL, the concentration for half-maximal inhibition (IC50) with HLA-B*42:01 (source organism: Mus musculus) was determined as 0.035 µM; in the assay with HLA-B*35:03, 16.1 µM; in the assay with HLA-B*53:01 (source organism: Mus musculus), 11 µM; in the assay with HLA-B*07:02 (source organism: Mus musculus), 0.0044 µM. Also, the dissociation constant Kd in the assay with HLA-B*35:01, with HLA-B*51:01 and with HLA-B*54:01 was no less than 50 µM each time.
In the case of TLALEVARQK, the IC50 amounted to 0.605 µM in the assay with HLA-A*03:01 (source organism: Mus musculus); 13 µM with HLA-A*31:01 (source organism: Mus musculus); 25.5 µM with HLA-A*33:01 [2] (source organism: Mus musculus); 13.4 µM with HLA-A*68:01 (source organism: Mus musculus); 3.33 µM in the assay with HLA-A*11:01 [3] (source organism: Mus musculus); 23.3 µM with HLA-A*30:01 [4]. Also, the Kd in the assay with HLA-A*66:01 [8] was no less than 50 µM.
